PMC3134789

T1: Nova-1 KH2 (UniProt Q9JKN6 171-237)
T1 sequence: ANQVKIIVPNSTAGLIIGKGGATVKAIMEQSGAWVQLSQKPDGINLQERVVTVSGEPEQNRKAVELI


Assays:
[1] = target: Nova-1 KH2 domain (individual domain); assay: AUC
[2] = target: Nova-1 KH2 domain (individual domain); assay: SEC
Nova-1 KH2 = target: T1, Nova-1 KH2; assay: NMR

Sequence of Nova-1 KH2 domain (individual domain) (domain or fragment) (P51513 44-493): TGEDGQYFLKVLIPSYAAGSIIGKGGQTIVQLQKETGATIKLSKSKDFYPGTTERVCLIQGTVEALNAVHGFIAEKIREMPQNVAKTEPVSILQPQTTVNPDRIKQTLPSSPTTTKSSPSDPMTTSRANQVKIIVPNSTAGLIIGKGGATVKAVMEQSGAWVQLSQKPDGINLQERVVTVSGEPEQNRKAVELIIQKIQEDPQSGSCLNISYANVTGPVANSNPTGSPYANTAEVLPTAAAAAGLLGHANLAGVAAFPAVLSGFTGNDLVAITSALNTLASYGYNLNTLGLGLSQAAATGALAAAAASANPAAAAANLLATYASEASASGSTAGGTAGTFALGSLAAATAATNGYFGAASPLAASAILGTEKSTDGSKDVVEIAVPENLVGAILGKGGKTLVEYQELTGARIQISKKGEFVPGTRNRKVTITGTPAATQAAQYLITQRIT

| stoichiometry N [1] | stoichiometry N [2] | Molecule | binding result (Nova-1 KH2) |
| --- | --- | --- | --- |
| 2 | 2 | Nova-1 KH2 domain (individual domain) (domain or fragment) |  |
|  |  | UCAC (ssRNA) [UCAC tetranucleotide] | binds |
